Test results reported in patent US11541133B2, “Treatment of cancer cells overexpressing somatostatin receptors using ocreotide derivatives chelated to radioisotopes” (RADIOMEDIX INC., priority 2017, dated 2023).

Legend:
[1] = Dosimetry and bio-distribution of ^203Pb-DOTAMTATE in patients with somatostatin expressing neuroendocrine tumors (SPECT-CT); format: in vivo, human
Experimental: Total of 6 patients are enrolled in the first-in-human open-label, single-dose, dosimetry and bio-distribution of ^203Pb-DOTAMTATE.
All patients (1 female and 5 male) receive an average dose of 4.94 (4.66-5.26) mCi of ^203Pb-DOTAM-TATE and undergo 1 hour, 4 hour, 24 hour and 48 hour post injection SPECT-CT scans. Ethnicity of all 6 patients is Caucasian.
Pharmacokinetic data from ^203Pb-DOTAMTATE imaging are used to calculate the absorbed dose from ^203Pb-DOTAMTATE imaging. The data is then extrapolated to calculate the expected tissue absorbed doses following the administration of ^212Pb-DOTAMTATE for future Targeted Alpha particle Therapy (TAT).

[2] = in vivo; set-up: species or system mice; details: CD-1, mouse, iv, 10 uCi, total radioactivity
Experimental: CD-1 mice are injected with 10 μCi of ^212Pb-DOTAMTATE as part of a biodistribution study. Blood is collected at 15 minutes; 1 hour and 4 hours post injection. Body weights determined by taking the average of 10 CD-1 mice at 7 weeks old, the age of the mice in this study and using this weight, blood volume is estimated using the equation by Lee and Blaufox (1985). % ID in blood mice is then calculated for 5 mice per group.

[3] = in vivo; set-up: species or system mice
Experimental: Female CD-1 mice (˜20 g) are injected with a single dose of ^212Pb-DOTAMTATE. Specifically, 10 μCi of ^212Pb-DOTAMTATE is diluted in PBS and 100 μl is administered to the mice via intravenous injection. The animals are sacrificed at predetermined time points of 15 minutes, 1 hour, 4 hours and 24 hours and 48 hours post drug injection. Tissues are collected from each animal and evaluated for amount of radioactive material in each organ by auto gamma counter. Specifically, organs are harvested, weighed and transferred to polypropylene tubes. The tubes are placed in a calibrated Wizard2 γ-counter (PerkinElmer, Shelton, Conn.) and counted for three minutes (204-274 keV). A standard consisting of one-twentieth of the injection volume is counted with each time point. The background is automatically subtracted from the counts. The standard is also used for decay correction. % ID/g is calculated for each organ collected.

[4] = Repeat-dose (fractionated vs single dose) toxicity study in tumor-free CD-1 mice (FIGS. 37-39); format: in vivo
Experimental: Female, tumor free CD-1 mice are injected with one dose of 40 μCi ^212Pb-DOTAMTATE, 2 doses of 20 μCi ^212Pb-DOTAMTATE or three doses of 15 μCi ^212Pb-DOTAMTATE. Animals are given three weeks between doses for these who received multiple treatments. Animals are weighed three times per week and monitored daily for signs of termination criteria (15% weight loss over 2 days or 20% loss from initial weight, lack of grooming over 5 days, lethargy/weakness over 3 days, reduced motility, hunched back, diarrhea, hypothermia). Blood for hematological analysis is collected weekly.

[5] = test system: AR42J cells
Experimental: Thirty-thousand (3×10^4) AR42J cells are grown in the wells of a 96 well plate for 2 days. Cells are then incubated for 4 hours with increasing doses of ^212Pb-DOTAMTATE ranging from 0 nCi/ml to 800 nCi/ml. Eight wells per group are treated. Cells are washed with PBS to remove drug and then fresh media is introduced. Cells are allowed to incubate for 6 days at 37° C. Cells are then rinsed and incubated with fluorescein diacetate for 30 minutes and read with a fluorimeter at 485/535 nm. Percentage of viable cells is calculated based on untreated cells as a control.

[6] = mouse, in vivo
Description: Signs of acute toxicity are examined in a non-GLP repeat dose study to compare single administration vs fractionation (described below). This study is designed based on observations made in athymic nude mice. […] This observation is correlated with the GLP findings that hematological toxicity in the surviving animals from the higher dose groups is recoverable within a month. As renal and hepatic toxicity is cumulative a single dose treatment vs multiple doses leading to the same cumulative dose should be similar (Barendsen, 1964). Fractionated administration of radioactivity three weeks apart compared to a single injection had very similar toxicity profile.

[7] = Non-GLP dose range finding (single dose acute toxicity) study in athymic nude mice (FIGS. 35-36); format: in vivo
Experimental: Female athymic nude mice (˜20 g) are injected with a single dose of 10 μCi, 20 μCi, 40 μCi or 60 μCi of ^212Pb-DOTAMTATE or control PBS intravenously. Five animals are assigned per treatment group. Animals are weighed three times per week and monitored daily for signs of termination criteria (15% weight loss over 2 days, lack of grooming over 5 days, lethargy/weakness over 3 days, reduced motility, hunched back, diarrhea, hypothermia). The study is concluded after 4 weeks.

[8] = test system: AR42J tumors; assay: Combination therapy efficacy study with ADRUCIL in AR42J xenograft athymic nude mice (FIGS. 42-43); format: in vivo; details: ADRUCIL alone, 15 mg/kg once weekly, nine injections
Experimental: Athymic nude mice are given AR42J tumors and allowed to grow until tumors reach about 300 mm^3. Mice in treatment groups are injected with 100 μl of 15 mg/kg ADRUCIL® once weekly for a total of nine injections. 10 μCi of ^212Pb-DOTAMTATE is given at either 2 week or 3 week intervals for a total of 3 treatments. The ^212Pb-DOTAMTATE is given within 24 hours after an ADRUCIL® treatment. 10 μCi per 4.1 ng peptide is used, and the cumulative injection dose is 30 μCi. The animals are monitored daily, and calipered and weighed 3 times per week. The animals are sacrificed when termination criteria are met.

[9] = female, CD-1, mouse, iv, 10 uCi, total radioactivity

| Compound | cumulative dose corresponding to the maximum theoretical absorbed dose estimate to kidneys of 23 Gy ([1]; human, in vivo) [mCi] | dose per therapy cycle corresponding to the maximum theoretical absorbed kidney dose of 23 Gy ([1]; patients, dosimetry analysis, 3 cycles) [mCi] | tissue uptake dose at 1 h [2] [%ID] | tissue uptake dose at 4 h [2] [%ID] | tissue uptake at 1 h [3, 9] [%ID/g] | tissue uptake at 24 h [3, 9] [%ID/g] | percent-injected dose per gram, all organs with the exception of the kidneys ([3]; mouse) | animals that died ([4]; 1×40 μCi, nine days after injection) [%] | animals that died ([4]; 2×20 μCi, within four weeks of the study, one week after the second dose) [%] | mortality ([4]; 3×15 μCi, three weeks between doses) | cytotoxic effect [5] | toxicity compared with single 40 μCi dose [6] | animals surviving until the end of the four-week study ([7]; single dose 10 μCi and 20 μCi groups) [%] | time of death of all animals ([7]; single dose 60 μCi) [days post injection] | median survival [8] [weeks] |
| --- | --- | --- | --- | --- | --- | --- | --- | --- | --- | --- | --- | --- | --- | --- | --- |
| C[C@@H](O)[C@H](NC(=O)[C@@H]1CSSC[C@H](NC(=O)[C@@H](Cc2ccccc2)NC(=O)CN2CCN(CC(N)=O)CCN(CC(N)=O)CCN(CC(N)=O)CC2)C(=O)N[C@@H](Cc2ccc(O)cc2)C(=O)N[C@H](Cc2c[nH]c3ccccc23)C(=O)N[C@@H](CCCCN)C(=O)N[C@@H]([C@@H](C)O)C(=O)N1)C(=O)O [^212Pb-DOTAMTATE, ((4R,7S,10S,13R,16S,19R)-13-((1H-indol-3-yl)methyl)-10-(4-aminobutyl)-16-(4-hydroxybenzyl)-7-((R)-1-hydroxyethyl)-6,9,12,15,18-pentaoxo-19-((R)-3-phenyl-2-(2-(4,7,10-tris(2-amino-2-oxoethyl)-1,4,7,10-tetraazacyclododecan-1-yl)acetamido)propanamido)-1,2-dithia-5,8,11,14,17-pentaazacycloicosane-4-carbonyl)-L-threonine chelated to M, metal not drawn] | 32.7 | 10.9 | 1.8 | 0.1 | ~30 | ~10 | less than 10% | ~40 | 50 | no mortality | complete cell death | same toxicity profile | 100 | 7 |  |
| O=c1[nH]cc(F)c(=O)[nH]1 [ADRUCIL®] |  |  |  |  |  |  |  |  |  |  |  |  |  |  | 2.4 |
